± gives the half width of the 95% confidence interval.
Legend:
[1] = folding stability dG unfold from trypsin proteolysis; higher = more stable
Summary of the method: (§1)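 Digests were run with trypsin and chymotrypsin at 11 concentrations in threefold dilutions, plus a no-protease condition, on designed mini-proteins in a PA-tagged cDNA display construct. The mini-proteins were under 80 residues, had no cysteine, and were kept only when AlphaFold2 dimer inter-PAE was above 15. After sequencing, Bayesian fitting of the counts gave K50, from which unfolding free energy was derived against a sequence-predicted unfolded-state K50 and a shared folded-state K50, per protease or combined.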

[2] = folding stability dG unfold from chymotrypsin proteolysis; higher = more stable
Summary of the method: as §1

[3] = folding stability dG unfold (combined trypsin and chymotrypsin); higher = more stable
Summary of the method: as §1

Sequence | folding stability dG unfold [1] | folding stability dG unfold [2] | folding stability dG unfold [3]
SAGGMELLGEVTVEKPGKPITFPIYRVPDEPREVVEVRELDPSTGKWTPIGTRELPPGEAERAIEELSAGGS [r8_423_JUSTAS] | 1.51 ± 0.335 kJ/mol | 2.4 ± 0.711 kJ/mol | 2.28 ± 0.669 kJ/mol
SAGGMELPPEVKTIAEKLEAEGYDVLAVPVGDSYVIAVDGKVAATPEEFEKLKKIPGVKKLITIDLPSAGGS [r16_275_TrMRF] | 1.81 ± 0.234 kJ/mol | 2.44 ± 0.205 kJ/mol | 2.27 ± 0.544 kJ/mol
SAGGMELTIPLPNGKLLKIKVEEVKAEPVLVEFELRDANGKLIDTIPAPSGFKISIRFSVEIYDPNEYSAGG [r13_848_TrMRF] | 12.2 ± 0.381 kJ/mol | 16.35 ± 0.134 kJ/mol | 15.1 ± 0.322 kJ/mol
SAGGMEPPPMLLLVIEIENEDGEKLRIVVPLEDLEEVLKALGLSKEEVRIKKIEVVPLTDEQLKELLESAGG [r13_850_TrROS_Hall] | 14.4 ± 1.46 kJ/mol | 14.9 ± 1.05 kJ/mol | 13.9 ± 1.17 kJ/mol
SAGGMETIELEIEITDEDGNTYRIRVTIERKDGKLVIKIEVEAETPEERERARELAEELARRLEEELSAGGS [r8_416_TrROS_Hall] | 17.2 ± 0.795 kJ/mol | 22.2 ± 1.46 kJ/mol | 20.7 ± 2.51 kJ/mol
SAGGMEVTFPVSPDLSPEEVRARIEAEIRPIAEARGAVDVEVPIVEYRRLPPDSVEFRFKVTVRFPRSAGGS [r8_184_JUSTAS] | 8.12 ± 0.372 kJ/mol | 10 ± 0.218 kJ/mol | 9.77 ± 0.46 kJ/mol
SAGGMEVVFVVGSPEVAEAFREKHPDLPFVPVSLEDYRNPAPFEAAVAAVEARGHAVRVITVPDDPESAGGS [r8_376_JUSTAS] | 0.22 ± 0.586 kJ/mol | 4.68 ± 0.209 kJ/mol | 3.33 ± 0.268 kJ/mol
SAGGMFKGPDGNWKTYKTTKPGLTKSDIGPFVEELVEKFLKDHGLNPENVSAKAEYNPSTGTVNVYVGSAGG [r13_913_TrMRF] | 0.172 ± 0.163 kJ/mol | 3.28 ± 0.347 kJ/mol | 2.41 ± 0.335 kJ/mol
SAGGMFLRIEPEDGSRFEIPLNDPSLPLEVVVGLVSKYMDGPVKLKLTLVLPEEEVEYEYEIPLEKKSAGGS [r16_216_TrMRF] | 5.21 ± 0.117 kJ/mol | 9.9 ± 0.255 kJ/mol | 8.29 ± 0.41 kJ/mol
SAGGMGLEELAKLSPEEIARRLAAEAKAAAAAAGTPDAAVTLEVTLEDKPIVVEVGADGTIRRVELGSAGGS [r16_431_JUSTAS] | 1.85 ± 0.418 kJ/mol | 4.86 ± 0.1 kJ/mol | 3.86 ± 0.264 kJ/mol
SAGGMGSEKLPLTLTLPGDRKLEVTVYRVGDKLYVEIKLTHGSKPLGTLTVEADSLDEVLDAAKEAASAGGS [r16_55_TrMRF] | 11.6 ± 0.628 kJ/mol | 15 ± 0.259 kJ/mol | 13.7 ± 0.628 kJ/mol
SAGGMIAEIKPIPPNVPDGATATITFPDGTPAEAELRTEPLEDGPRRVVLKLKGKEGEIELEFVLPLSAGGS [r8_360_TrMRF] | 0.67 ± 0.544 kJ/mol | -2.04 ± 1.3 kJ/mol | 0.0469 ± 0.414 kJ/mol
SAGGMIEIEYNPDQGYFRITVWPMNPKNGKPKSKEIPIPFEGDPEEALDKVKDLIDDHPGYHVDIEPYSAGG [r13_284_TrROS] | 2.75 ± 0.285 kJ/mol | 5.31 ± 0.544 kJ/mol | 4.4 ± 0.586 kJ/mol
SAGGMIELTIVVKTKEEAEKAAEELARKLAEELGVEVTVTSVEVEEVEDPETGETYLVVRVRIEVKPSAGGS [r8_171_TrROS_Hall] | 19.9 ± 1.13 kJ/mol | 17.2 ± 0.46 kJ/mol | 18.9 ± 0.962 kJ/mol
SAGGMIKITVTLPDPARVRALFAELGLDVEVTPLPDGSVEIYLPEEYKEKVVEALPEEEVEITPVPPLSAGG [r13_261_JUSTAS] | 10.5 ± 0.544 kJ/mol | 12.8 ± 0.711 kJ/mol | 12.2 ± 0.586 kJ/mol
SAGGMIKLEFENPDGMRIKIEIDRIHRFDPDNGYLIIPVKIEVEPPGKPREIDGTIILPPGMPPGQPLSAGG [r13_823_TrROS] | 8.54 ± 0.795 kJ/mol | 3.39 ± 0.343 kJ/mol | 5.96 ± 1 kJ/mol
SAGGMIRIERDGDRLTIEIHLPEGEELTPEQLEELARALLEELGPDARVVRVERLEDGTVRIEVELPSAGGS [r8_103_TrROS_Hall] | 13.9 ± 0.586 kJ/mol | 9.84 ± 0.293 kJ/mol | 12 ± 0.544 kJ/mol
SAGGMITATFTIDLGAGPVTFTFDITDIETALEKIKEYLKSQGIDAKLVSVSVDPANGTVPMKLSVPPSAGG [r13_567_JUSTAS] | 6.62 ± 0.18 kJ/mol | 6.12 ± 0.586 kJ/mol | 6.53 ± 0.502 kJ/mol

Sequence | folding stability dG unfold [1] | folding stability dG unfold [2] | folding stability dG unfold [3]
SAGGMIVIEKEEDGFYRITIRNKETGEEVEEIPISKEELEELLKEAEENMSLEEIAEKLGLEIEIEKVSAGG [r13_836_TrROS_Hall] | 7.03 ± 0.197 kJ/mol | 4.06 ± 0.0962 kJ/mol | 5.31 ± 0.502 kJ/mol
SAGGMIVIEVETEEEALEAARELAKKLLEKLKEEGIEEVTLTVTVEVVDEKTKEVKTYTLTLTVKKPSAGGS [r8_163_TrROS_Hall] | 16.5 ± 0.962 kJ/mol | 17.5 ± 0.213 kJ/mol | 17.1 ± 0.879 kJ/mol
SAGGMKFELVARFDSKEAAEKAVEELVRELFPDFDVEVEVEVIEDPETGTFLAIATITLPLPGPEDLSAGGS [r8_17_TrMRF] | 18 ± 0.879 kJ/mol | 17.5 ± 0.795 kJ/mol | 17.5 ± 0.837 kJ/mol
SAGGMKIEFDEKTKRITITLPDGKKVEIELKDGRKVEITFERVDGKLKVVIKHKNEEEALELAKKLLSAGGS [r16_623_TrROS_Hall] | 4.81 ± 0.36 kJ/mol | 5.62 ± 0.343 kJ/mol | 6.48 ± 1.09 kJ/mol
SAGGMKIEITVSPVGDVVNVEVKIELPEGPVEVVDETPAEVAPDGSIHIKLKLKLPNGPWLEMEIEVSAGGS [r8_449_JUSTAS] | 12.2 ± 1 kJ/mol | 16.6 ± 0.628 kJ/mol | 16.2 ± 1.38 kJ/mol
SAGGMKIEIVEIEREGNTITIKAKITLPDGTVIEITAKAEFVDGELKLEIKVEVRKLPPPPPPPPEESAGGS [r8_458_TrROS_Hall] | 12 ± 1.13 kJ/mol | 11.4 ± 1.63 kJ/mol | 10.7 ± 2.22 kJ/mol
SAGGMKIEVRPLPGDGFVVRLPGDVVALIDPSTGEAVAFFPDGSVARLTITRDPDRPEFTITIEPVGSAGGS [r8_186_TrMRF] | 7.4 ± 0.247 kJ/mol | 7.9 ± 0.134 kJ/mol | 7.67 ± 0.289 kJ/mol
SAGGMKIGVLLPKSIPPEKAEEFLKKLNPDLEVEYRPVEPGSLKDIPPEIEVIVLPADDDFALALVKPSAGG [r13_649_TrMRF] | 1.35 ± 0.184 kJ/mol | -1.68 ± 0.502 kJ/mol | 0.0194 ± 0.46 kJ/mol
SAGGMKIKVTVEVTFPDGTVRTFPVPDATSEEEVRAILAERGFGDLADVPIRITEREPVPAVPPEELLSAGG [r13_493_JUSTAS] | 7.02 ± 0.138 kJ/mol | 7.35 ± 0.18 kJ/mol | 7.08 ± 0.297 kJ/mol
SAGGMKINPKVFGNYVLVEVENPETGSRILKLVEFNPGPKTATVKVFYIDPNGKPTLLEEKTFSLPDLSAGG [r13_768_TrMRF] | 5.7 ± 0.0753 kJ/mol | 11.45 ± 0.105 kJ/mol | 9.7 ± 0.297 kJ/mol
SAGGMKIVSIEYDKENKKITIKVEAPPGVSAEELAKKIKELAKELFGKEIEIEVKVEKVEFFEPEEESAGGS [r8_314_TrROS_Hall] | 15.1 ± 0.669 kJ/mol | 13.1 ± 0.544 kJ/mol | 13.9 ± 0.502 kJ/mol
SAGGMKIVSVEFDEETGEVYVKIEVPTPEELEALKKLPGEVRIVDKETGEVKVIKVKSIEELLELLKKSAGG [r13_604_TrROS_Hall] | 7.8 ± 0.36 kJ/mol | 9.13 ± 0.297 kJ/mol | 8.59 ± 0.628 kJ/mol
SAGGMKIYYISKGKKYYVKVILPNNEIIEIETESLEEAIKKAKEELIKKYPNIPPENFKIDYIIPLPESAGG [r13_887_TrMRF] | 15.9 ± 0.837 kJ/mol | 18.2 ± 0.326 kJ/mol | 17.5 ± 0.837 kJ/mol
SAGGMKKEKVKITIVVPVEDAEKLREALEKLGFKVVEEKENEDGLLTLTVEVDGKKIEIKIVKKEELSAGGS [r16_170_TrROS_Hall] | 4.71 ± 0.368 kJ/mol | 3.39 ± 0.397 kJ/mol | 4.4 ± 1.17 kJ/mol
SAGGMKKGQKVTITIEKNEDGTLRITVKVDGKEFVFEFPKDMSLEELLKKAEEAAKKLNLPVEIEPVSAGGS [r16_446_TrROS_Hall] | 5.38 ± 0.289 kJ/mol | 11.1 ± 0.628 kJ/mol | 9.64 ± 1.05 kJ/mol
SAGGMKKYKIKVENLPPGARIITPDGREIKPGEEVEIELPEDVKEIYVILPDGKIVKVKVEEVEPEEESAGG [r13_441_TrROS_Hall] | 17.2 ± 1.26 kJ/mol | 18 ± 0.628 kJ/mol | 15.5 ± 3.18 kJ/mol
SAGGMKKYKVTVTIELTPPDGTTTTVTVTIDVDGDEKKALEEAEKVAEELKAAGYPVTIKEIKIYEESAGGS [r16_525_JUSTAS] | 15.9 ± 1.55 kJ/mol | 18.9 ± 1.26 kJ/mol | 19.6 ± 3.26 kJ/mol
